Test results as given in article doi:10.1101/2020.03.25.007906 (bioRxiv, 2020).

Columns and labels:
[1] = target: T1, purified recombinant drDnaB (Deinococcus radiodurans R1, UniProt Q9RWW6 1-448); test: SPR
T1 sequence (looked up): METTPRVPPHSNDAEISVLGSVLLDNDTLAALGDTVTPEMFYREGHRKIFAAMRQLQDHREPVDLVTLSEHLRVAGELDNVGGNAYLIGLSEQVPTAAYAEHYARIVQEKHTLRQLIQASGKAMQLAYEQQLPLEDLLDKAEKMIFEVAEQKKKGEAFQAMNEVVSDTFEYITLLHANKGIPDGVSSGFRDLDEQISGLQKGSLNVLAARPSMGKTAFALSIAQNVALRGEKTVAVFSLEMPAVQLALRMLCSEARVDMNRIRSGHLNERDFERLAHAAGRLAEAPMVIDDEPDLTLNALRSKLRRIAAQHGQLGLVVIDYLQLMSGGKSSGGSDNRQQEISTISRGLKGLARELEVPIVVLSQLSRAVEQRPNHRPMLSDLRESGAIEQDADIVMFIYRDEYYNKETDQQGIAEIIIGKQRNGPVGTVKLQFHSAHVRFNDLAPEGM

[2] = target: T2, purified recombinant drDnaA (Deinococcus radiodurans R1, UniProt Q9RYE7 1-466); test: SPR
T2 sequence (looked up): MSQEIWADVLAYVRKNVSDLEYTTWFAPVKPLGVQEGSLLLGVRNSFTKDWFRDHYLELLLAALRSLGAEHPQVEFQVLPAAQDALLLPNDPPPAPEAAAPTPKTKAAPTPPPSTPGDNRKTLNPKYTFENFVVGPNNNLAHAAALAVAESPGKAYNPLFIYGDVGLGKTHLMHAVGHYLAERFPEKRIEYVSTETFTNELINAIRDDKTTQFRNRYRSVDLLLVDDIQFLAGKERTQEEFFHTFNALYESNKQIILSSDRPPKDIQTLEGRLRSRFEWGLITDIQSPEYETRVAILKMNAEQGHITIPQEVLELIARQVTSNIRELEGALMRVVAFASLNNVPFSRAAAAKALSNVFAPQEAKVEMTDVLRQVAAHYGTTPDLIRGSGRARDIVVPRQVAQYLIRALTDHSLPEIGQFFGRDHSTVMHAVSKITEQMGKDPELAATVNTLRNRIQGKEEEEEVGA

- Kd [1]: 0.971 µM
- Kd [2]: 0.541 µM
B1: recombinant PprA (natural protein, Deinococcus radiodurans, UniProt O32504 1-300, looked up)
chain: MLPLAFLICSGHNKGSMARAKAKDQTDGIYAAFDTLMSTAGVDSQIAALAASEADAGTLDAALTQSLQEAQGRWGLGLHHLRHEARLTDDGDIEILTDGRPSARVSEGFGALAQAYAPMQALDERGLSQWAALGEGYRAPGDLPLAQLKVLIEHARDFETDWSAGRGETFQRVWRKGDTLFVEVARPASAEAALSDAAWDVIASIKDRAFQRELMRRSEKDGMLGALLGARHAGAKANLAQLPEAHFTVQAFVQTLSGAAARNAEEYRAALKTAAAALEEYQGVTTRQLSEVLRHGLRES
